The assay has as its target recombinant human VEGF (R&D Systems, 293-VE-010) (human) (UniProt P15692). As to the kind of experiment: Octet HTX biosensor kinetics; antibody at 10 ug/mL in 1x kinetics buffer; recombinant human VEGF 200 nM to 3.125 nM.
Sequence of UniProt P15692 (P15692 other isoform, or with tags, fused parts or gaps limits assumed): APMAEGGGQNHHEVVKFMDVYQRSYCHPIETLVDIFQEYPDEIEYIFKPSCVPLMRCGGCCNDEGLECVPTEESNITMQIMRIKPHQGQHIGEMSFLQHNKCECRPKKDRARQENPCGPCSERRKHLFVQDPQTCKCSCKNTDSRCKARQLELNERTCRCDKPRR

Regarding “mouse anti-human VEGF monoclonal antibody (anti-hVEGF MmAb; R&D Systems, MAB293-100)”, the Kd (as a rule, the concentration at which binding is half-saturated) was found to be 0.229 nM; the koff (commonly a measure of how fast the partners let go of each other) came out at 7.77e-05 s⁻¹; the association rate constant (kon) (commonly the rate constant with which the complex forms) came out at 340000 M⁻¹ s⁻¹.

The values above are taken from patent US20250136673A1.
